In patent publication US20230056815A1:

Assays:
Assay in all cases: cell-based or functional assay
[1] = molecular target: human soluble FLT3L (recombinant huFLT3L) (human) (UniProt P49771)
[2] = molecular target: mouse soluble FLT3L (mouse) (UniProt P49772)
[3] = molecular target: cynomolgus monkey soluble FLT3L (cynomolgus monkey)

Sequence of human soluble FLT3L (recombinant huFLT3L) (human) (P49771 27-184): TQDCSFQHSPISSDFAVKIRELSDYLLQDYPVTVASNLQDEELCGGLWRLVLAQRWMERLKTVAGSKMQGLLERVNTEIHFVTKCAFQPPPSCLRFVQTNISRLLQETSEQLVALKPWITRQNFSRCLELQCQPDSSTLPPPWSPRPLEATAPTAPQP
Sequence of mouse soluble FLT3L (mouse) (P49772 27-189): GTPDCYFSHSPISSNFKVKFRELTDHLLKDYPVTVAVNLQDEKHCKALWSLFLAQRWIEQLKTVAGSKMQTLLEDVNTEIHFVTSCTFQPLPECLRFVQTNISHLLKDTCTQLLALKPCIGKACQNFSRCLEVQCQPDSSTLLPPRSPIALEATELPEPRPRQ

IC50 (nM) against 0.476 nM FLT3L, ERK phosphorylation in CD133+ stem cells [1]: 0.19 nM
IC50 (nM) against 0.476 nM FLT3L, MEK phosphorylation in CD133+ stem cells [1]: 0.19 nM
IC50 (nM), inhibition of FLT3 downregulation on RS4;11 cells [1]: 0.04 nM
IC50 (nM), inhibition of FLT3 downregulation on RS4;11 cells [2]: 0.12 nM
IC50 (nM), inhibition of FLT3 downregulation on RS4;11 cells [3]: 0.1 nM
Substance: commercially available mouse anti-human FLT3L monoclonal antibody (MAB608, R&D Systems)
